For this experiment, the target named is full-length SARS-CoV-2 spike protein (residues 13-1273 of UniProtKB P0DTC2) fused to green fluoresce (SARS-CoV-2) (UniProt P0DTC2). The experiment in a line: flow cytometry on cells. (In flow cytometry, cells or beads pass a laser one at a time.)

From article PMC7775388 come the findings set out here.

pKd: −log10 of the molar value.

recombinant ACE2-Fc fusion protein (residue Gln18-Ser760 fused to human Fc), sequence (Q9BYF1 18-740 limits assumed): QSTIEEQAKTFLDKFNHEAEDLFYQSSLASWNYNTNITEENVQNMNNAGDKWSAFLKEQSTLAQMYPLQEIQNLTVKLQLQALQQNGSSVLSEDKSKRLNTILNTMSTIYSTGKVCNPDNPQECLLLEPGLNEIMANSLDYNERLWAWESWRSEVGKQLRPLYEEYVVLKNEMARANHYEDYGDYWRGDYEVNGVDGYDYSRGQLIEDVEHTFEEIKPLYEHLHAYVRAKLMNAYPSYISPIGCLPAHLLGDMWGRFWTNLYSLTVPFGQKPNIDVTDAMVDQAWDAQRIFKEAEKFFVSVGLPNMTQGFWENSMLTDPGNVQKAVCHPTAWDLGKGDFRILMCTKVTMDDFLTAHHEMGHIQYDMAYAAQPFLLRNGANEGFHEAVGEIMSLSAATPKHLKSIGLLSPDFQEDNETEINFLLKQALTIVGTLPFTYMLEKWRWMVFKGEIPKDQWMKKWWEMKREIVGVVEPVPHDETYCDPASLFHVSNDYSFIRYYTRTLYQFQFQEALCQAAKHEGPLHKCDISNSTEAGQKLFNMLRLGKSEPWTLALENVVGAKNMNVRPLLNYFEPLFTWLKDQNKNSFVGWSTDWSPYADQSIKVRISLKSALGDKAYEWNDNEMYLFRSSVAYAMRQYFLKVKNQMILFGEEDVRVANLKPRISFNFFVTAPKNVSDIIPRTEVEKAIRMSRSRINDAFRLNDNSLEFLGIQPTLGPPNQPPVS

As for “recombinant ACE2-Fc fusion protein (residue Gln18-Ser760 fused to human Fc)”, the pKd (as a rule, the Kd on a negative log10 scale, so that one unit is a factor of ten) is 7.96.
